Experiment: soluble on expression in E. coli; label from the status in PepcDB or PDB records

Sequence	soluble on expression in E. coli
MSLALPDFEFSFATRDEFDRKPVAKKLINILNSNIDISPMVIDGSWGTGKTEFCRKTIKLINDEFNETLICAYIDAFEADHTNDPLIPIVAAISELIEDSSKKIAFLNKAKAIFRYGLKASARASVAWLLRSNTETLDQEFQKELEKAVDEGSQNLVDGVITDYQEAKKDINSLKLILQDLTVEKKLVIFIDELDRCKPDFAIAIIEKIKHVFDVANVKFILVTNYTQMKASVNHCYGLALDAHRYLDKFIKFKFYLPTDKYSNKRKQHVSYHYADQLIRNSDILKAHSRYYLDSRFDLLNNLIIINELSLREISNFILYLELFHTLKSDQFAPDKWYHLSIFIIFILYFKPELREKIRKKDILASELCKFLGINSHIKAKELTHDKDGVSRDIATLIMIFLNDNSIPGYQSDDEEDFKGWLSKLALSTNVGYLELITYIEQFINDIFNEFQFVTKAAALEHHHHHH	soluble
VLIARRPEDKHQGGLWEFPGGKVEDGEPVRAALARELEEELGIRVERARPLIQVRHDYADKHVLLDVWEVDGFSGEAHGAEGQPLAWVEPRELADYEFPAANAPIVQAARLPAHYLITPDGLEPGELISGVRKAVEAGIRLIQLRAPNMFSPEYRDLAIDIQGLCAGKAQLMLKGPLEWLGDFPAAGWHLTSAQLRKYASAGRPFPEGRLLAASCHDAEELALAASMGVEFVTLSPVQPTESHPGEPALGWDKAAELIAGFNQPVYLLGGLGPQQAEQAWEHGAQGVAGIRAFWPGGL	not soluble
MAHHHHHHMRVASFCLPLHLLSFGAQARGCFRHSTGGSSSVFCAARPFRLSHTMAASACSSAVHLDNFRLLAAGHDATHAAPSSAPLTAPISFSLTFHFQRYDGADFESFISSLGVSVDFVADVASEQTTLTLLPLTPVSGPWARRDTAAANGAFLMAASASDSSTSSSDYAAGAPLDGAAGAAPGMMYQLRVYLSDFRALEKVQLKHLLQVSMMHVRLAHLGTSDGVGNSDSSDPRTEERSVAAWNVIWRVRRNPQNEQELIRTVLDPLA	not soluble
MRKVTLMDVFTHPIAQKYLQRSGVAHAIACAYHAYRLSVKADINPDLAAKAALLHDIGHYEWYTDGKWDYEKYKRNDIHAIKGAERAHKLLIRLGEEPKAAKEIALAILLHTDSYLPEGELDKNTLQQIVKKADELDEEPGGHHHYRQIDPSTARKKIEKLDQLIDQAQASVIKPV	not soluble
MGIIISLVAPTVSSTISSRLMIGPENNEKDAKNSDRTKYDNLAMLGRSPEQKEHVNPFEKAPVARPTRNTVDSQMMLGPPKKANDQSASDCSIYDNLVVPMSELGPTPGNKPSPNPIEGAPMIRPPQDTVSRAPDNSIYDTLQMTPEVDWSKKMTMKSMKKTGK	not soluble
GAMGGMHLVGVLDIAKDILKANKRLADKNRKLLNKHGVVAFDFMGAIGSGKTLLIEKLIDNLKDKYKIACIAGDVIAKFDAERMEKHGAKVVPLNTGKECHLDAHLVGHALEDLNLDEIDLLFIENVGNLICPADFDLGTHKRIVVISTTEGDDTIEKHPGIMKTADLIVINKIDLADAVGADIKKMENDAKRINPDAEVVLLSLKTMEGFDKVLEFIEKSVKEVK	soluble
MAGSNSRKPVVGMKIRVALVSALLAVSGCTTLSGKAPTLAPTPASTPPTSGKVTKSIISAMDGGLIGGSIGNGLSDEEKRSALEAEYKALEYTTSGQKVAWKGDQASHYGEVVPAQPYRVGSQDCRQYTQTVFTGGAGVTARGTACRNADGSWTPLTLEHHHHHH	soluble
MQMNHPIYIASDHTGLELKSLVIKHLEQQKLQVIDLGPTELDPLDDYPDYAFLLAQTMQANPNSLGILICGTGVGVCMAANKAKGILAALVVDSKTAALARQHDDANVLCLSSRFVVPEENIKIVDEFLQAQFEGGRHSKRVGKIIAYEREK	soluble
GSPALDTGTTEEDRLKIDVIDWLVFDPAQRAEALKQGNAIMRKFLASKKHEAAKEVFVKIPQDSIAEIYNQCEEQGMESPLPAEDDNAIREHLCIRAYLEAHETFNEWFKHMNSVPQKPALIPQPTFTEKVAHEHKEKKYEMDFGIWKGHLDALTADVKEKMYNVLLFVDGGWMVDVREDAKEDHERTHQMVLLRKLCLPMLCFLLHTILHSTGQYQECLQLADMVSSERHKLYLVFSKEELRKLLQKLRESSLMLLDQGLDPLGYEIQLSGRIVTD	soluble
MGSDKIHHHHHHTVPTFYLFGLLIMHNAAQHNYVISLTTEQKRRKHITEEFGKQNIPFEFFDAITPDIIEETAKKFNITLDRSPKAKLSDGEIGCALSHIVLWDLALENNLNYINIFEDDIHLGENAKELLEIDYISDDIHVLKLEANGKMFFKQPKSVKCDRNVYPMTVKQSGCAGYTVTAKGAKYLLELVKNKPLDVAVDSLVFEDFLHFKDYKIVQLSPGICVQDFVLHPDNPFESSLQEGRDRVHGNQRKSSILEKIKNEFGRVKIKMFGKQVPFK	not soluble
MGSDKIHHHHHHMPDMSMFGILNTALTGIHAHKLAMNIVGHNIANASTPGYSRQRPVIEANPPIPLTTLTQPSFPLQMGTGARVKTIVRLRDAFLDVQYRQVNNRYNYWDTVLSNLHFIEQLLAEPGEDGIRSLVDNFWNAFKEVMSDPSSTASKAEVVSRAQQMVSQIKDLYGRLEQLREDIDAEIVQRVSEINQMIKRLADLNNKIRTSMMLNSPPNDLLDERDRILDELSNLANINYTEAEDGQITLRIGNQIVLNGSTYRELRALERPYGKGYHELFVGNSQLILSDGKLKALIDLRDSSIVKYMRKLDEFVLFITDSLNLVHRDGFESNGVTTNLNFFKKIEAFSDDPSIFRIKGNRKLEMGPYHTVTGLHSANSQAEIEGRRFNSNDVVLSFDGGSSNVLNISAGTTIGDLVGSWNLLGTSLKVGTHAGGYRLYLEDSTGSLRNRLFLSLGDSLSQMGFDTETKGYITIKESDLSGLSSGVYNINVEYILEDGTRQTETISVDLSSGVNLSNIEASINSSSHLRAQIYADPSTGENMLVIVPDEQLNFDPSAVKVLSDDDFFTESNAFVRNYEVLKYKDTLENIFYGQTGFDPTRPFTITINSTDIEIDPAVDTLETLVEKINEKNTGVLADLTPHHSLVFRASSLYDFDLRMMEIKGPQGFFEAVGFVDPDGDPTTFDWNTSFTLVSKSDDFTTLSERFKVADILTFDRAPYDEPLNIVNQFEVSSSLATNPANLAVDVGYALENSDWNATSIKPSGGANPELLETIQNLYTRKMLSNGKESFYEFFGGVVSELGVEAETASNLKNNTEILRQEIDNAREEVKGVSLDEEMANMIEYQHAFSAAAKVITAVDQMIQTVINMVG	not soluble
RRNINVVLHEDSKALDEVVIVGYGKQKKESVVVSMSSIKPKDIVVPSRSLNNSLAGQVAGLIAVQRSGEPGYDNAEFWIRGVSTFAGGTSPLVLVDGVPRNMSDIEPDEIETFSVLKDAAATAIYGAEGANGVVLVTTKRGRVEK	not soluble
MSLSHSIKPWHEACSKLARTSKPEAFNVDTLFAQLADDTNDTFYTVDPRWITQNAQQFSGCFPGTVLYAMKANPLVHVLEALSQGGINHFDVASLAEVQTVHNTLPNAVQYLMNPVKSRHCLHEAYYRHGVRSFVLDSEEELSKLRDVLPERDSTISMFVRYAPSESTAVYDLRGKFGASPALATQLVHQVAASTDWSLGLSFHVGSQAIEDGPWLAALDDADAIVRDTAQHVRHLDIGGGFPGNYLNSMGNTPDLVGRVCEHIQTSPTLKDLNLICEAGRGLVYGGMSLFARVLSRREHSVFCGAGIFGGLLSAQQWLQFPARVWRDAAPYAGSAEATFNIFGPTCDSMDRLAFPYSLASDIREGDWLEFQSTGAYSVSLRTPFNGFYADRIISLPSEGHHHHHH	soluble
MQRHERIRFFITEQCRNLDPTYRNYMYPKQILLGDVPLPLLPNSSLTFRVNSAEKICFRIRLSIDDSQEPLNIGIPLSQVESVSIKDHSAKHPEPALLFLLKKGALERFIQVCNPLLGELHTYHGRKRKMLTYLTVILGMDPHLEQPNPVYCRVSLMANKFTFPFGTAKKILLKDLPIMWQEVLDKQYDRRLKTGIHHDRERMAEMDDEAWDWLMSFLNVKWDKCPSGGRWFVRDKDEILQSNEKLHHKMIYWLNQ	not soluble
MLPPLPDFSLSVEQQFDLQKYRQQVRDISREDLEDLFIEVVRQKMAHENIFKGMIRQGS	soluble
MLFKARKWILSGASAQKSKSMAHTMLVENGFILPTAKGFYSLLPLGQRVIDKLCRILDVEFQNSGALKIAMPIVGTQQLWEKTGRWEAMGPEMIRFHDRQQNHMCLQPTAEEMCTELIATLSPLKKSQFPLIVYQIGEKFRDEMNPRFGLMRGRQFLMKDMYSFSTDAETSQQTYAQIRQIYDRIFGEILQLDEDVIKVEADSGVHGGHISHEYHLKSSLEEDFVNFCENCKNHNKFEGPGPAKCEKCAENSSKTVQKIPSVEIAHTFHLGTKYSEALGAKFQGKPLDMCCFGIGVTRLLPAAIDLLSVSDKALRLPRAIAPFDAVIIVKKSLMSNVIVEMASSSASRYLKGGILLDDRVEMSAGKRIHDANRLGIPFILVIANETERSLATQKPVIEVFTTHAKSAEPMSQGSMSLDRFVTFVQSTLYGGGGAHDSGHLAHNQVLDQLGSHQH	not soluble
MGSDKIHHHHHHMEERVVVEGLTGGYRPNKPVLHDLHLKIRANELVGLIGLNGAGKSTTIKHILGLMEPHKGSVMINGNTITTDRETYRRSLAYIPETPILYEELTLWEHMELTALAYGIERKAFEERSKLLLDEFRMTKMKHWYPSHFSKGMRQKVMIICAFLIDPPVYIVDEPIVGLDPIGIQSFLQLLATKKKNGAAVLMSTHILATAERYCDRFIILNRGRIVLEGTLESMRAELNMPDATLDDIYIEMTKEESQ	not soluble
MKFYTILSILFISFMLSACAVLQKSSPLQENKDFYILDTHTQKKISFEDMILELLKADVILLGEKHDEVKHKISQVMIFNALEGNLSSQNINFDVALEMLASTEQNHLDKAFKNKKTIKANELTNALNWDKVWKWKDYEQFVNVVFYSKSKILGANLSRSEITSIYNGAQPLKGYVSTTNEVKKQLFDIISLSHKLNPEENKELLDKLVEIQQFKDRRMADVLVHHVNKVLLLAGSYHTSKKIGIPLHIQDFKSSKKIVVVNLSYGEIDLKDSDYVLIYKGEE	not soluble
APAADAAQAHDPLSVQTGSDIPASVHMPTDQQRDYIKREVMVPMRDGVKLYTVIVIPKNARNAPILLTRTPYNAKGRANRVPNALTMREVLPQGDDVFVEGGYIRVFQDIRGKYGSQGDYVMTRPPHGPLNPTKTDETTDAWDTVDWLVHNVPESNGRVGMTGSAYEGFTVVMALLDPHPALKVAAPESPMVDGWMGDDWFHYGAFRQGAFDYFVSQMTARGGGNDIPRRDADDYTNFLKAGSAGSFATQAGLDQYPFWQRMHAHPAYDAFWQGQALDKILAQRKPTVPMLWEQGLWDQEDMWGAIHAWQALKDADVKAPNTLVMGPWRHSGVNYNGSTLGPLEFEGDTAHQYRRDVFRPFFDEYLKPGSASVHLPDAIIYNTGDQKWDYYRSWPSVCESNCTGGLTPLYLADGHGLSFTHPAADGADSYVSDPAHPVPFISRPFAFAQSSRWKPWLVQDQREAESRPDVVTYETEVLDEPVRVSGVPVADLFAATSGTDSDWVVKLIDVQPAMTPDDPKMGGYELPVSMDIFRGRYRKDFAKPEALQPDATLHYHFTLPAVNHVFAKGHRIMVQIQSSWFPLYDRNPQKFVPNIFDAKPADYTVATQSIHHGGKEATSILLPVVKQKLGPEQKLISEEDLNSAVDHHHHHH	soluble
MRILQLILLALATGLVGGETRIIKGFECKPHSQPWQAALFEKTRLLCGATLIAPRWLLTAAHCLKPRYIVHLGQHNLQKEEGCEQTRTATESFPHPGFNNSLPNKDHRNDIMLVKMASPVSITWAVRPLTLSSRCVTAGTSCLISGWGSTSSPQLRLPHTLRCANITIIEHQKCENAYPGNITDTMVCASVQEGGKDSCQGDSGGPLVCNQSLQGIISWGQDPCAITRKPGVYTKVCKYVDWIQETMKNN	soluble
MSRLATLTWTSYRRGYTEIVTSAGLEVVFEPGDEWNSHDREYQQARLEVEGRGESGDGTVRTRTQALLRWQFKIKDGTVKRLPEADFTREVLVAVRLAIKDYRSQSSELRQKYFGPGFAMGG	not soluble
